Results reported in US20180311371A1 (Hoffmann-La Roche, published 2018).

What was measured:
[1] = biological target: T1, human TPBG (trophoblast glycoprotein), full length, cell surface expressed (human, UniProt Q13641 32-420); experiment: cell-based or functional assay
T1 sequence: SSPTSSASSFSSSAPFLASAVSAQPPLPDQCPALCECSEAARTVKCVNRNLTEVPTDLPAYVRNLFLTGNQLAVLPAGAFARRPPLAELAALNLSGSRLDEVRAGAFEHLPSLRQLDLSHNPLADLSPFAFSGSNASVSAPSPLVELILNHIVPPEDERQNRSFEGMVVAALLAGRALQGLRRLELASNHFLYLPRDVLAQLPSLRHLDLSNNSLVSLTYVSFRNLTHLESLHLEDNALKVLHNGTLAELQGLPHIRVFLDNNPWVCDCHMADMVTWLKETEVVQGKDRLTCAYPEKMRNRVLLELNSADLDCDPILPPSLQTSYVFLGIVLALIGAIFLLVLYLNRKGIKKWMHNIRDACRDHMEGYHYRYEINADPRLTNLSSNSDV

[2] = biological target: T1, human TPBG (trophoblast glycoprotein), …; experiment: cell ELISA on MCF7 cells; titrated from 5 µg/ml
[3] = biological target: T2, human TPBG extracellular domain, His6Avi, biotinylated (human, biotinylated); experiment: ELISA; biotinylated TPBG-AviHis on streptavidin plate; Fab titrated from 2 µg/ml
T2 construct: also called huTPBG; human TPBG-AviHis
T2 chain: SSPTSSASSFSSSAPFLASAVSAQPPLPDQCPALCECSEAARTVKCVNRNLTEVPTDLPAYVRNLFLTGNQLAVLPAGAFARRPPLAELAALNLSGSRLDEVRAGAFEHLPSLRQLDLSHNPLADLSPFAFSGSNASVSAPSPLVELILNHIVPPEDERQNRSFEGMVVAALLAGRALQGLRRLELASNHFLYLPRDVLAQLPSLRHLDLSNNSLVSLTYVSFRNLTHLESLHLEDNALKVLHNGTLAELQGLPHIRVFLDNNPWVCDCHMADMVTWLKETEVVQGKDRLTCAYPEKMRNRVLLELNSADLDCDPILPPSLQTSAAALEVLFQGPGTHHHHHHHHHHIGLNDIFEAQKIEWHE

[4] = biological target: T3, cynomolgus TPBG extracellular domain, His6Avi, biotinylated (cynomolgus, biotinylated); experiment: as above
T3 construct: also called cyTPBG; cyno TPBG-AviHis
T3 chain: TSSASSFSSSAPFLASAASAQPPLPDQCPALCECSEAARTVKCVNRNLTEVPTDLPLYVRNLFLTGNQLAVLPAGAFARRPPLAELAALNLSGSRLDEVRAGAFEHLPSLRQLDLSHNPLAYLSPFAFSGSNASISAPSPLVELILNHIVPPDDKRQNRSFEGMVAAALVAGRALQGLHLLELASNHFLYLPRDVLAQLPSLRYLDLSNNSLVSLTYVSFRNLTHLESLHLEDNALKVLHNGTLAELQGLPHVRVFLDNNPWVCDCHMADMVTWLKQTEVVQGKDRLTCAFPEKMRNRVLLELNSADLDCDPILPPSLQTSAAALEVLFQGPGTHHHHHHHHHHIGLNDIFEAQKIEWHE

[5] = biological target: T4, minipig TPBG extracellular domain, His6Avi, biotinylated (minipig, biotinylated); experiment: as above
T4 construct: also called mpTPBG; minipig TPBG-AviHis
T4 chain: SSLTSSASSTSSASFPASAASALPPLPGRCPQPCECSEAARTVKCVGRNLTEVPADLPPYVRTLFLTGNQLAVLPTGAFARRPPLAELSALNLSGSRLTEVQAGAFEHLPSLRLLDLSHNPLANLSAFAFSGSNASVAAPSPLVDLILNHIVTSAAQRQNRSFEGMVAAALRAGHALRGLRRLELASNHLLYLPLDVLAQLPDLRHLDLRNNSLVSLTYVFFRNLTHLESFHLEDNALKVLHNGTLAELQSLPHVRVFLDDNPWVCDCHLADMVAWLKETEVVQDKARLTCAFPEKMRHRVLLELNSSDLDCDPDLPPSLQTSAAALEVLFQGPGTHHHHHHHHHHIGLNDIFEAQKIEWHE

[6] = biological target: T5, recombinant extracellular domain of minipig TPBG (Biacore analyte) (minipig); experiment: SPR Biacore T200; Fab captured by anti-huFab, minipig TPBG injected
T5 chain: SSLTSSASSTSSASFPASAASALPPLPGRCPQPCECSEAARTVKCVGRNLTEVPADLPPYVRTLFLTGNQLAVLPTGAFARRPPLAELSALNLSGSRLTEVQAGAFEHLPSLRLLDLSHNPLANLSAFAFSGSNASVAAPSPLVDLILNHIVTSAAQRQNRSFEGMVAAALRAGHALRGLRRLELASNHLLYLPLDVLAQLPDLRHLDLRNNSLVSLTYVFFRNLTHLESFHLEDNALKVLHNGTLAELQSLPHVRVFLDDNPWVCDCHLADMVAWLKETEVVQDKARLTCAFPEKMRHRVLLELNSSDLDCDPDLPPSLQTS

[7] = biological target: T6, minipig TPBG, full length, cell surface expressed on CHO-K1 cells (minipig); experiment: cell-based or functional assay
T6 chain: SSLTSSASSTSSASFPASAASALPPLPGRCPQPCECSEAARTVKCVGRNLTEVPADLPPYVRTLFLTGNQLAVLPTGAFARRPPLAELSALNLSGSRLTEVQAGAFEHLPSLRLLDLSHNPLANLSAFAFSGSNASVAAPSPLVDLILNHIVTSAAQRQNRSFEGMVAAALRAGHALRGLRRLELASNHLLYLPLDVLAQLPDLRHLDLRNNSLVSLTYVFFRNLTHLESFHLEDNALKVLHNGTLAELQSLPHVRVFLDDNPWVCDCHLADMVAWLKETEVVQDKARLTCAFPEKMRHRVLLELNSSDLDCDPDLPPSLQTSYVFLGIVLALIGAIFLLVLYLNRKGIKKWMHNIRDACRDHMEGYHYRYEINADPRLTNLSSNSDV

[8] = biological target: T1, human TPBG (trophoblast glycoprotein), …; experiment: cell-based or functional assay; remark: listed apart in the source

B1: anti-TPBG antibody 091, Fab fragment (Fab, V domains shown)
VH: EVHLLESGGGLVHPGGSLRLSCAASGFTFRSDAMHWVRQAPGKGLEWVSGVSGSGGSPYYADSVKGRFTISRDDSKTTLYLQMNSLRAEDTAVYYCATGGSIAGSYYYYPMDVWGQGTTVTVSS
VL: DIQMTQSPSSLSASVGDRVTITCQASQDISNYLNWYQQKPGKAPKLLIYAASTLQIGVPSRFSGSGSGTDFTFTISSLQPEDFATYYCQQANSFPLTFGGGTKVEIK
notes: also called Fab2
[1]
  EC50 cytotoxicity, Fab-PE sandwich construct, MCF7: 0.414 nM
  X-fold higher potency compared to TPBG(H8)PE, MCF7, first experiment: 3 fold
  X-fold higher potency compared to TPBG(H8)PE, MCF7, second experiment: 2.7 fold
[2]
  EC50: 0.014 mg/L
[3]
  EC50: 0.0277 mg/L
[4]
  EC50: 1.23 mg/L
[5]
  EC50: 0.0618 mg/L
[6]
  Kd: 1.74 nM
  koff: 0.000205 s⁻¹
  kon: 118000 M⁻¹ s⁻¹
[7]
  EC50 cytotoxicity, Fab + anti-kappa-Fab-PE, CHO-K1/minipig TPBG, replicate 1: 1.05 nM
  EC50 cytotoxicity, Fab + anti-kappa-Fab-PE, CHO-K1/minipig TPBG, replicate 2: 1.2 nM
[8]
  EC50 cytotoxicity, Fab + anti-kappa-Fab-PE, CHO-K1/human TPBG, replicate 1: 0.23 nM
  EC50 cytotoxicity, Fab + anti-kappa-Fab-PE, CHO-K1/human TPBG, replicate 2: 0.24 nM
